This note sets out measurements from doi:10.1101/215541, “DHX36 binding at G-rich sites in mRNA untranslated regions promotes translation”.

The target in this data set is T1, FH-DHX36 (RHAU, G4R1) (human (expressed in HEK293 T-REx Flp-In …, UniProt Q9H2U1 1-1008)).
T1 sequence: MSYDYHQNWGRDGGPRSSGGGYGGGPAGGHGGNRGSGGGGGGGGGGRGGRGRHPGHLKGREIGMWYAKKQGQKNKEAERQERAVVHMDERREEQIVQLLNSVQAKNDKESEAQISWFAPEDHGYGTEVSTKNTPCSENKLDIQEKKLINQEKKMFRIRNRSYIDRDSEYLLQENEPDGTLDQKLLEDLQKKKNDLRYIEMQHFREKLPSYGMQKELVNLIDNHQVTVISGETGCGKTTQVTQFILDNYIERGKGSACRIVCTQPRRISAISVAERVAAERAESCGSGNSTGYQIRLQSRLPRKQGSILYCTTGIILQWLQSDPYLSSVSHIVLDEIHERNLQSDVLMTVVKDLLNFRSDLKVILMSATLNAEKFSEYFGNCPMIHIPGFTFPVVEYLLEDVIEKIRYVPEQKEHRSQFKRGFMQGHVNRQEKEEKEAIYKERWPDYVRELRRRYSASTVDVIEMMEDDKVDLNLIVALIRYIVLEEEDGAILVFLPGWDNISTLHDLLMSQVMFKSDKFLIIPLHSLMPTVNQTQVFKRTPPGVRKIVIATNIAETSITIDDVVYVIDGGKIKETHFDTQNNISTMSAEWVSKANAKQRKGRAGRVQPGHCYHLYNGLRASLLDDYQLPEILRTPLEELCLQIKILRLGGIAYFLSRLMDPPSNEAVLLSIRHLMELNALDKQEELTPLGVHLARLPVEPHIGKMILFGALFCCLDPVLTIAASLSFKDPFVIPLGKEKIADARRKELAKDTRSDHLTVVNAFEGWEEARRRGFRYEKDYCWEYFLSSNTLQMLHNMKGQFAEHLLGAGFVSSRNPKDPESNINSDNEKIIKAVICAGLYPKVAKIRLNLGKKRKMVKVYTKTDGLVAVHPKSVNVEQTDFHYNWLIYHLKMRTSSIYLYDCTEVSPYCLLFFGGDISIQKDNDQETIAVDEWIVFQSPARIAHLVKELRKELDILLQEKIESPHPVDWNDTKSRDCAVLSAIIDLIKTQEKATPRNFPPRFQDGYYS
Kind of data set: MST; 25 nM oligonucleotide, DHX36 up to 50 nM; MST: 1x MST buffer (composition not stated), 0.5% BSA, 5 mM DTT; 25 nM Cy5 oligo (folding buffer for CD oligos: 10 mM Tris pH 7.5, 100 mM KCl, 1 mM EDTA); temperature not stated. The note with it: protein: recombinant, tags: N-terminal FLAG-HA (pFRT-FlagHA vector), label: 5'-Cy5.

On to AAAAAGGAGGAGGAGGAGGA (structured_DNA) [DHX36 RRE for MST (G-rich PAR-CLIP motif)], for which, where the note is “parallel G4 (CD on the longer A10 version)”, the binding result was “binds”.

Consider AAAAAGCAGCAGGAGCAGCA (ssDNA) [mutated DHX36 RRE for MST], for which the binding result (no G4 signature (CD on the longer A10 version)) was “no binding”.
